The labels stand for the following.
B1: Progesterone receptor (Homo sapiens), P06401-1 (parent)
chain: MTELKAKGPRAPHVAGGPPSPEVGSPLLCRPAAGPFPGSQTSDTLPEVSAIPISLDGLLFPRPCQGQDPSDEKTQDQQSLSDVEGAYSRAEATRGAGGSSSSPPEKDSGLLDSVLDTLLAPSGPGQSQPSPPACEVTSSWCLFGPELPEDPPAAPATQRVLSPLMSRSGCKVGDSSGTAAAHKVLPRGLSPARQLLLPASESPHWSGAPVKPSPQAAAVEVEEEDGSESEESAGPLLKGKPRALGGAAAGGGAAAVPPGAAAGGVALVPKEDSRFSAPRVALVEQDAPMAPGRSPLATTVMDFIHVPILPLNHALLAARTRQLLEDESYDGGAGAASAFAPPRSSPCASSTPVAVGDFPDCAYPPDAEPKDDAYPLYSDFQPPALKIKEEEEGAEASARSPRSYLVAGANPAAFPDFPLGPPPPLPPRATPSRPGEAAVTAAPASASVSSASSSGSTLECILYKAEGAPPQQGPFAPPPCKAPGASGCLLPRDGLPSTSASAAAAGAAPALYPALGLNGLPQLGYQAAVLKEGLPQVYPPYLNYLRPDSEASQSPQYSFESLPQKICLICGDEASGCHYGVLTCGSCKVFFKRAMEGQHNYLCAGRNDCIVDKIRRKNCPACRLRKCCQAGMVLGGRKFKKFNKVRVVRALDAVALPQPVGVPNESQALSQRFTFSPGQDIQLIPPLINLLMSIEPDVIYAGHDNTKPDTSSSLLTSLNQLGERQLLSVVKWSKSLPGFRNLHIDDQITLIQYSWMSLMVFGLGWRSYKHVSGQMLYFAPDLILNEQRMKESSFYSLCLTMWQIPQEFVKLQVSQEEFLCMKVLLLLNTIPLEGLRSQTQFEEMRSSYIRELIKAIGLRQKGVVSSSQRFYQLTKLLDNLHDLVKQLHLYCLNTFIQSRALSVEFPEMMSEVIAAQLPKILAGMVKPLLFHKK
B2: Estrogen receptor (Homo sapiens), P03372 (parent)
chain: MTMTLHTKASGMALLHQIQGNELEPLNRPQLKIPLERPLGEVYLDSSKPAVYNYPEGAAYEFNAAAAANAQVYGQTGLPYGPGSEAAAFGSNGLGGFPPLNSVSPSPLMLLHPPPQLSPFLQPHGQQVPYYLENEPSGYTVREAGPPAFYRPNSDNRRQGGRERLASTNDKGSMAMESAKETRYCAVCNDYASGYHYGVWSCEGCKAFFKRSIQGHNDYMCPATNQCTIDKNRRKSCQACRLRKCYEVGMMKGGIRKDRRGGRMLKHKRQRDDGEGRGEVGSAGDMRAANLWPSPLMIKRSKKNSLALSLTADQMVSALLDAEPPILYSEYDPTRPFSEASMMGLLTNLADRELVHMINWAKRVPGFVDLTLHDQVHLLECAWLEILMIGLVWRSMEHPGKLLFAPNLLLDRNQGKCVEGMVEIFDMLLATSSRFRMMNLQGEEFVCLKSIILLNSGVYTFLSSTLKSLEEKDHIHRVLDKITDTLIHLMAKAGLTLQQQHQRLAQLLLILSHIRHMSNKGMEHLYSMKCKNVVPLYDLLLEMLDAHRLHAPTSRGGASVEETDQSHLATAGSTSSHSLQKYYITGEAEGFPATV

The first test covers variants of B1. The following applies: with esr1_human ESR1, P03372.
In the case of P422A;P423A;P426A, the “effect of a mutation on the interaction” value is recorded as “with no effect”.

Variants of B1 are the subject of the next test. The following applies: with src_human SRC.
In the case of P422A;P423A;P426A, the “effect of a mutation on the interaction” value is given as “disrupting interaction strength”.

In the next test the parent is B2. The following applies: with PGR.
With Y537F, the “effect of a mutation on the interaction” value was “with no effect”.

The values above are taken from IntAct's records for PubMed 12612073.
